In patent US20050048066A1, “Identification of potential immunodominant acetylcholine receptor alpha subunit” (priority 2000, published 2005):

Key:
[1] = tested on: HLA-DR3 (a mix of DRB1*0301 and DRB3*0101); assay: DELFIA competitive binding assay, solubilized HLA-DR3; set-up: species or system human; conditions: in words, from IC50
Protocol: The sequence of the AChRα subunit is shown with each of the transmembrane regions (M1-M4) indicated by a shaded box.) Ten-fold dilutions (preferably 1-100,000 nM) of unlabeled AChRα peptides were co-incubated at pH 5.5 with the biotinylated myelin basic protein peptide MBP 84-102, and the IC50 of binding to solubilized HLA-DR2 (a mix of DRB1*1501 and DRB5*0101) or HLA-DR3 (a mix of DRB1*0301 and DRB3*0101) was measured. Measurement of the IC50 is preferably done by europium-streptavidin dissociation-enhanced lenthanide fluoroimmunoassay (DELFIA) and the IC50 typically calculated by four parameter fit analysis with the software program SOFTmax Pro. FIG. 2 lists the IC50s of each AChRα peptide binding to HLA-DR2 and HLA-DR3.

[2] = target: HLA-DR2 (a mix of DRB1*1501 and DRB5*0101) (Homo sapiens, UniProt P01903+P01911+Q30154); assay: DELFIA competitive binding assay, solubilized HLA-DR2; conditions: in words, from IC50 / plot of 1/IC50
From the text: Measurement of the IC50 is preferably done by europium-streptavidin dissociation-enhanced lenthanide fluoroimmunoassay (DELFIA) and the IC50 typically calculated by four parameter fit analysis with the software program SOFTmax Pro.

Substance	affinity for HLA-DR3 [1]	relative affinity for HLA-DR2 [2]
AChRα 195-212: synthetic peptide fragment of the acetylcholine receptor α subunit, residues 195-212	high affinity	
AChRα 419-437: synthetic peptide fragment of the acetylcholine receptor α subunit, residues 419-437 (IIGTLAVFAGRLIELNQQG)		high relative affinity
AChRα 310-327: synthetic peptide fragment of the acetylcholine receptor α subunit, residues 310-327 (NWVRKVFIDTIPNIMFFS)		high relative affinity

Now from value to substance:

affinity for HLA-DR3 [1]	relative affinity for HLA-DR2 [2]	Substance
	high relative affinity	AChRα 113-126: synthetic peptide fragment of the acetylcholine receptor α subunit, residues 113-126 (TGHITWTPPAIFKS)
high affinity		AChRα 145-163: synthetic peptide fragment of the acetylcholine receptor α subunit, residues 145-163 (KLGTWTYDGSVVAINPESD)
